Data taken from US10787678 (UNIVERSITY OF GEORGIA RESEARCH FOUNDATION, dated 2020).

Experiments:
Cry3Bb toxin [1] = target: T1, Cry3Bb toxin (Bacillus thuringiensis, UniProt Q06117 64-652); assay: ELISA, biotinylated peptide titrated on plate-coated activated Cry3Bb; one-site saturation binding fit of specific binding
T1 construct: also called Cry3Bb protein; trypsinized Cry3Bb

Cry3Bb toxin [2] = target: T1, Cry3Bb toxin; assay: cell-based or functional assay

T1 sequence (Q06117 64-652 limits assumed): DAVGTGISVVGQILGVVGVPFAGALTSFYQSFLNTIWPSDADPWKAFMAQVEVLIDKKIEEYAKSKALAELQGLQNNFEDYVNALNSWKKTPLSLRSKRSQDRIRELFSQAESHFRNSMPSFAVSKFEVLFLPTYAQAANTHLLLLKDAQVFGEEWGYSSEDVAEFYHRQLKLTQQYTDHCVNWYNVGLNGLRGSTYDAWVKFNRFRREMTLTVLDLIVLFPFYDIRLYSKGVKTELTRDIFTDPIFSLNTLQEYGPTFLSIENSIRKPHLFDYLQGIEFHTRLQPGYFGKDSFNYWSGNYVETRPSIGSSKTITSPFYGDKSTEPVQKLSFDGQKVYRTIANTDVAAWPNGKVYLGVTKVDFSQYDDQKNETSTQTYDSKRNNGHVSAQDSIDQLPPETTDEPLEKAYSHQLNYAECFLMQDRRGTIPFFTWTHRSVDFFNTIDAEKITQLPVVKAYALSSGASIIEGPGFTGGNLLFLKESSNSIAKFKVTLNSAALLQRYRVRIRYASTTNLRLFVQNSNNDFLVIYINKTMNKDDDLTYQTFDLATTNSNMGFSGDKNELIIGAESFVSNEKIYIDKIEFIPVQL

B1: AdCad1-MPED peptide (peptide)
chain: DSDSYITVLPLVDAVSTAKLVTIHATDPDDTSEVQYQIESCIGSGDLLQKLCGNNPFEINKISGEISAQIQSANLSKWDGHFNLTVTAADEAGFDDKNHTDEAVVTLYLVTKLHLVAFDFENSLEQVQNKSNEIKTILDEQFAETSDGGTPYVATVQGANAKSDEITTATVYFLNLKQQKPVNKDNIYSYCTNTQYFGSMRSAFLAEGLSLMSFDGTSNETEDMEEILT
modifications: biotinylated with sulfo-NHS-photocleavable biotin (50-fold molar excess) in the binding assay
notes: Expressed in E. coli from pET-30a (Nde I / Xho I), purified from inclusion bodies on a Ni-chelating column; In the bioassays it was used unlabelled, as inclusion bodies; also called biotinylated-AdCad1-MPED; not shown: C-terminal His-tag from the pET-30a vector
Q: How did the Kd (Cry3Bb toxin [1]) turn out when B1 was run?
A: Its Kd is 40.6 nM.

Q: What about the “larval mortality with Cry3Bb (10 ug/cm^2) plus peptide at a 1:10 mass ratio, against 10% with toxin alone” value (Cry3Bb toxin [2]) of the same binder?
A: The value was greater than 25%.

B2: AdCad1-CR9 peptide (peptide)
chain: TEMIYKLTVEASIKEQTQINGKPTFARCEFNVGFFDKDNTDPIFKNKHEDTHEMAEEDDTLFYVLIENATYAKEDVPDDLSTFYLLAEGERDIFDVDKFTGKVTLNKPLDYETKKSHSLTIQSSNSDKLKLNASEETKLHLTIIVTDINDHAPVM
modifications: biotinylated with sulfo-NHS-photocleavable biotin (50-fold molar excess) in the binding assay
notes: Expressed in E. coli from pET-30a (Nde I / Xho I), purified from inclusion bodies on a Ni-chelating column; In the bioassays it was used unlabelled, as inclusion bodies; also called biotinylated-AdCad1-CR9; not shown: C-terminal His-tag from the pET-30a vector
Q: B2 was tested. Which Kd (Cry3Bb toxin [1]) did it give?
A: The Kd was 23.2 nM.

Q: And the “larval mortality with Cry3Bb (10 ug/cm^2) plus peptide at a 1:10 mass ratio, against 10% with toxin alone” value (Cry3Bb toxin [2])?
A: The value was greater than 25%.
